Reference: publication PMC11389781

What was measured:
[1] = biological target: human CaV2.2 pore-forming subunit α1B (CACNA1B), wild type (human) (UniProt Q00975)
[2] = biological target: human CaV2.2 α1B D185C (VSD I labelling variant) (human) (UniProt Q00975)
[3] = biological target: human CaV2.2 α1B N1266C (VSD III labelling variant) (human) (UniProt Q00975)
[4] = biological target: human CaV2.2 α1B N1580C (VSD IV labelling variant) (human) (UniProt Q00975)

Gβγ complex of human Gβ1 and Gγ2 (from UniProt P62873 1-340; P59768 1-71)
shift of V0.5 of CaV2.2 pore opening toward positive potentials by coexpressed Gβγ (tail currents, cut-open oocyte voltage clamp, 20 ms pulses) [1]: 14 mV
shift of V0.5 of VSD I activation by coexpressed Gβγ (voltage-clamp fluorometry, ΔF-V) [2]: 21 mV
shift of V0.5 of VSD III activation by coexpressed Gβγ (voltage-clamp fluorometry, ΔF-V); VSD III was not modulated by Gβγ [3]: -0.1 mV
shift of V0.5 of VSD IV activation by coexpressed Gβγ (voltage-clamp fluorometry, ΔF-V); modest inhibition [4]: 13 mV
